Patent US20090082262

Key:
[1] = system: T1, full size HCC-1 (HCC-1, residues 1-74)
T1 sequence: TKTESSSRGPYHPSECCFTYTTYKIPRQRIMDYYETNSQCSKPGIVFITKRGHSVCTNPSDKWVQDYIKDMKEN

[2] = system: T2, PHC-1 (HCC-1[9-74])
T2 sequence: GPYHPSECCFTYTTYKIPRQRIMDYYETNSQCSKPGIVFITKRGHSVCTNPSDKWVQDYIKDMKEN

Row | Substance | tryptic digestion, 1 h, enzyme/substrate-ratio (w/w) 1/100 [1] | proteolytic cleavage; product analysed by RP-HPLC, CCR5 aequorin assay, mass spectrometry and Edman degradation [1] | proteolytic degradation, activity after 90 min at 37° C with 10 or 100 IU urokinase [2]
1 | trypsin | One cleavage product, the newly identified biologically active peptide PHC-1, comprising residues 9-74 of the HCC-1 precursor sequence, with the molecular mass of 7795 Da was obtained |  | 
2 | urokinase |  | identifying PHC-1 and full size HCC-1 as the major compounds in these fractions | No change of activity was observed after an incubation of 90 min at 37 °C
